Laboratory results published in patent US20100015126A1, “Methods of Binding of Cross-Beta Structures By Chaperones” (priority 2006, published 2010).
Blank lines part the entries; values can stand above or below the substance they belong to.

Columns and labels:
BiP-Sepharose [1] = target: T1, BiP-Sepharose (Homo sapiens, UniProt P11021); test: BiP-Sepharose extraction of proteins from patient plasma, serum, synovial fluid and mass-spectrometric identification; type: binding; conditions: for Specific binding to BiP-Sepharose from control serum: compared to RA patient III
T1 construct: The human BiP gene except the signal peptide encoding region was obtained from Geneart (Germany); linker […]; made in house; host or cells: HEK 293E cells, transient transfection, PABC674 vector; secreted into the medium
Procedure: BiP was coated on CNBr-Sepharose (GE-Healthcare, Amersham Biosciences). Immobilization of BiP was performed essentially as described elsewhere in this application for NHS-Sepharose. CNBr-matrix was dissolved at 200 mg/ml in 1 mM HCl and treated the same as the NHS-matrix, except for an additional 5 minutes activation step in 1 mM HCl on a roller device before washing in this buffer. BiP was diluted in immobilization buffer (50 mM NaCl and 40 mM NaHCO3) to a concentration of 820 μg/ml. A total volume of 2 ml BiP solution (1640 μg BiP) was incubated with 360 mg beads. Negative control matrix was exposed to immobilization buffer, only. After overnight immobilization matrix was blocked with Tris and washed.
(§1) Six samples were incubated with the BiP-Sepharose, IgIV-Sepharose and the control-Sepharose: Normal pooled plasma, plasma of a patient I or of a patient II, with AL amyloidosis, serum of a patient III with RA (Rheumatoid Factor (RF) titer 682), control serum and synovial fluid of a patient IV with RA (RF titer 23). All samples were diluted 20× in HBS and applied to 200 μl beads in two volumes of 500 μl. One volume was incubated for 4 h at RT and supernatant was discarded after centrifugation (2 minutes at 1400 rpm). Subsequently, the second volume was applied to the same matrix and incubated overnight on a roller device at 4° C. […] To collect the eluates, the matrices were centrifuged and the two eluates were pooled for each sample.
(§2) Protein digests were desalted as described (Rappsilber et al., 2003), vacuum dried and dissolved in 2.5% formic acid.
(§3) For analysis of peptide mixtures, an Agilent 1100 HPLC system (Agilent Technologies) connected to a Thermo Finnigan LTQ-MS (Thermo Electron, Bremen, Germany) was used. Protein digests were injected on a trap column (Reprosil C18 RP (Dr Maisch, Germany), 20 mm×100 μm I.D.) at 5 μl/minute. Subsequently, the peptides were transferred with a split-reduced flow rate of 100 nL/minute solvent A (0.1 M acetic acid) on the analytical column (Reprosil C18 RP, 20 cm×50 μm I.D.). […] The column effluent was directly introduced into the ESI source of the mass spectrometer via a butt-connected nano-ESI emitter (New Objectives, Woburn, Mass.). The mass spectrometer was operated in the positive ion mode and parent ions were selected for fragmentation in data-dependent mode.
(§4) After mass spectrometric measurements, peak lists were generated using BioWorks software (Thermo Electron, Bremen, Germany). Protein identification was performed using Mascot software (www.matrixscience.com) by searching the IPIhuman database (version 3.24, downloaded from ftp://ftp.ebi.ac.uk/pub/databases/IPI/current) using the following settings: fully tryptic peptides, peptide tolerance 0.8 Da, MS/MS tolerance 0.9 Da, 1 missed cleavage allowed, carbamidomethyl (Cys) and oxidation (Met) as fixed and variable modification, respectively. The Scaffold software package (www.proteomesoftware.com) was used to parse the data and to filter peptides at a confidence level of 95%, allowing only protein identification with at least 2 peptides identified.

BiP-Sepharose [2] = target: T1, BiP-Sepharose; test: Experiment 2: BiP-Sepharose extraction from six synovial fluid samples of RA patients and mass spectrometry; type: binding; conditions: BiP-Sepharose eluate, synovial fluid of RA patient
Procedure: as §1, §2, §3, §4
Those samples are listed below: • 1. […] One difference when compared to the protocol described above is that now with the twelve samples, elution buffer comprised 1 M NaCl. Again, a misfolded protein or a protein binding to misfolded protein is identified uniquely in the synovial fluid when no or a relatively very low number of fragments are detected in eluates of control-Sepharose.

[3] = Sample B3: eluate of BiP-Sepharose contacted with AL amyloidosis patient II plasma
[4] = Sample B2: eluate of BiP-Sepharose contacted with AL amyloidosis patient I plasma
[5] = Sample B6: eluate of BiP-Sepharose contacted with RA patient IV synovial fluid
[6] = Sample B4: eluate of BiP-Sepharose contacted with RA patient III serum
[7] = compared to AL amyloidosis patient I
[8] = compared to AL amyloidosis patient II

T1 sequence (P11021 19-654): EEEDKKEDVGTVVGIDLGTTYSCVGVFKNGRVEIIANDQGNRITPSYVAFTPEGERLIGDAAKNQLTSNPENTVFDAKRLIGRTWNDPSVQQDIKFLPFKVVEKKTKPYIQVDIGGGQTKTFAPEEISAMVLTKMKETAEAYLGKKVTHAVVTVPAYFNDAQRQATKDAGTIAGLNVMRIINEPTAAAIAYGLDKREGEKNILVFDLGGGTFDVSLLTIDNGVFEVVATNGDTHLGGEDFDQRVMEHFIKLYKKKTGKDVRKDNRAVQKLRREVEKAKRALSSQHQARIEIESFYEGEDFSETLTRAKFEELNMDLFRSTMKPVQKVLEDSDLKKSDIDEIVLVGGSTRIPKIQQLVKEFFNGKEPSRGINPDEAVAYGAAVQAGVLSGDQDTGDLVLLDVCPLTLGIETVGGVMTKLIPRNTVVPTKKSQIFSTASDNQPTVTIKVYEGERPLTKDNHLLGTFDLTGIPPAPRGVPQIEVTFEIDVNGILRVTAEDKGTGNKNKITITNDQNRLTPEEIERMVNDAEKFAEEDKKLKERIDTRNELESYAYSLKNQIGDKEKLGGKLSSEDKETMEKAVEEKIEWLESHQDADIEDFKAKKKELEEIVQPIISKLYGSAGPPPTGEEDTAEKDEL

- # of peptides in sample A# (BiP-Sepharose [1]; [3]): 8
Substance: 25 kDa protein/Immunoglobulin lambda locus [IPI00747752]

- # of peptides in sample A# (BiP-Sepharose [1]; [5]): 6
Substance: 26 kDa protein/Immunoglobulin kappa variable 1-5 [IPI00430820]

- # of peptides in sample A# (BiP-Sepharose [1]; [4]): 1
- # of peptides in sample A# (BiP-Sepharose [1]; [3]): 1
Substance: 26 kDa protein/immunoglobulin kappa variable 1-5 [IPI00738024]

- # of peptides in sample A# (BiP-Sepharose [1]; [6]): 1
Substance: Alpha-1-antitrypsin precursor/Serpin peptidase inhibitor, clade A (alpha-1 antiproteinase, antitrypsin), member 1 [IPI00553177]

- Specific binding to BiP-Sepharose from normal pooled plasma (BiP-Sepharose [1]; [7]): specifically bound
- Specific binding to BiP-Sepharose from normal pooled plasma (BiP-Sepharose [1]; [8]): specifically bound
Substance: Alpha-2-macroglobulin [IPI00478003]

- # of peptides in sample A# (BiP-Sepharose [1]; [3]): 2
Substance: Dynein heavy chain domain 3/KIAA1503 protein (Fragment) [IPI00783464]

- # of peptides in sample A# (BiP-Sepharose [1]; [6]): 4
Substance: Full-length cDNA clone CS0DL004YM19 of B cells (Ramos cell line) of Homo sapiens (Fragment)/Unnamed protein product [IPI00328493]

- # of peptides in sample A# (BiP-Sepharose [1]; [3]): 1
Substance: Hypothetical protein DKFZp686N02209/immunoglobulin heavy constant gamma 1 (G1m marker) [IPI00384938]

- # of peptides in sample A# (BiP-Sepharose [1]; [3]): 1
- # of peptides in sample A# (BiP-Sepharose [1]; [6]): 1
Substance: Hypothetical protein LOC651928/Immunoglobulin kappa variable 1-5/IGKV2-24 protein [IPI00440577]

- # of peptides in sample A# (BiP-Sepharose [1]; [3]): 2
- # of peptides in sample A# (BiP-Sepharose [1]; [5]): 1
Substance: Hypothetical protein [IPI00784983]

- # of peptides in sample A# (BiP-Sepharose [1]; [4]): 1
Substance: Hypothetical protein [IPI00807428]

- # of peptides in sample A# (BiP-Sepharose [1]; [3]): 1
Substance: Hypothetical protein/Ig kappa chain V-II region RPMI 6410 precursor [IPI00550731]

- # of peptides in sample A# (BiP-Sepharose [1]; [4]): 1
Substance: Hypothetical protein/immunoglobulin lambda locus/immunoglobulin lambda chain C regions (1/2/3)/immunoglobulin lambda variable V2-14/Ig lambda C3 protein (C2 segment protein, C3 segment protein)/Hypothetical protein DKFZp667J0B10 (Fragment) [IPI00760678]

- # of peptides in sample A# (BiP-Sepharose [1]; [4]): 1
- # of peptides in sample A# (BiP-Sepharose [1]; [3]): 2
Substance: Hypothetical protein/immunoglobulin lambda variable 4-3 [IPI00382938]

- # of peptides in sample A# (BiP-Sepharose [1]; [3]): 1
- # of peptides in sample A# (BiP-Sepharose [1]; [6]): 2
- # of peptides in sample A# (BiP-Sepharose [1]; [5]): 1
Substance: IGLC1 protein (immunoglobulin lambda C1)/immunoglobulin lambda chain/immunoglobulin C1 segment protein (fragment) [IPI00719373]

- # of peptides in sample A# (BiP-Sepharose [1]; [4]): 1
Substance: IGLC2 protein (immunoglobulin lambda C2)/Immunoglobulin lambda [IPI00555945]

- # of peptides in sample A# (BiP-Sepharose [1]; [5]): 2
Substance: Ig heavy chain V-III region CAM [IPI00382482]

- # of peptides in sample A# (BiP-Sepharose [1]; [6]): 1
Substance: Ig heavy chain V-III region TUR/Ig heavy chain V-III region TIL [IPI00382478]

- # of peptides in sample A# (BiP-Sepharose [1]; [4]): 8
- # of peptides in sample A# (BiP-Sepharose [1]; [6]): 10
Substance: Immunoglobulin lambda variable 3-25/V2-17 protein (Fragment) [IPI00550162]

- # of peptides in sample A# (BiP-Sepharose [1]; [3]): 2
Substance: Single-chain Fv (Fragment) [IPI00470652]

- Specific binding to BiP-Sepharose from normal pooled plasma (BiP-Sepharose [1]; [7]): specifically bound
- Specific binding to BiP-Sepharose from normal pooled plasma (BiP-Sepharose [1]; [8]): specifically bound
- Specific binding to BiP-Sepharose from control serum (BiP-Sepharose [1]): specifically bound
Substance: haptoglobin [IPI00431645]

Continued, substance first:

Substance: 25 kDa protein/immunoglobulin lambda chain/rheumatoid factor G9 light chain (lambda V3)/IGLC1 protein [IPI00154742]
- # of peptides in sample A# (BiP-Sepharose [1]; [4]): 1
- # of peptides in sample A# (BiP-Sepharose [1]; [3]): 1

Substance: 187 kDa protein, complement component 3
- # of unique peptides (BiP-Sepharose [2]; Sample 1B): 2
- # of unique peptides (BiP-Sepharose [2]; Sample 5B): 1

Substance: 187 kDa protein/Complement component 3 [IPI00164623]
- # of peptides in sample A# (BiP-Sepharose [1]; [6]): 9

Substance: (sero)transferrin [IPI00022463]
- Specific binding to BiP-Sepharose from normal pooled plasma (BiP-Sepharose [1]; [7]): specifically bound
- Specific binding to BiP-Sepharose from control serum (BiP-Sepharose [1]): specifically bound

Substance: Apolipoprotein A-I precursor
- # of unique peptides (BiP-Sepharose [2]; Sample 1B): 3
- # of unique peptides (BiP-Sepharose [2]; Sample 3B): 8

Substance: Apolipoprotein A-II precursor
- # of unique peptides (BiP-Sepharose [2]; Sample 1B): 1

Substance: Apolipoprotein E precursor/Apolipoprotein E/Apolipoprotein E3 (Fragment) [IPI00021842]
- # of peptides in sample A# (BiP-Sepharose [1]; [4]): 6

Substance: Complement component 4 binding protein, alpha, C4b-binding protein alpha chain precursor (C4bp) (Proline-rich protein/PRP) [IPI00021727]
- # of peptides in sample A# (BiP-Sepharose [1]; [6]): 7
- Specific binding to BiP-Sepharose from normal pooled plasma (BiP-Sepharose [1]; [8]): specifically bound

Substance: Fc fragment of IgG binding protein (IgGFc-binding protein precursor/FcgammaBP/Fcgamma-binding protein antigen) [IPI00242956]
- # of peptides in sample A# (BiP-Sepharose [1]; [4]): 4

Substance: GCN1 general control of amino-acid synthesis 1-like 1 (yeast)/GCN1-like protein 1 (HsGCN1) [IPI00001159]
- # of peptides in sample A# (BiP-Sepharose [1]; [6]): 2

Substance: Hypothetical protein/Heat shock 70 kDa protein 5 (glucose-regulated protein, 78 kDa = GRP78 = BiP = HSPA5) [IPI00003362]
- # of peptides in sample A# (BiP-Sepharose [1]; [5]): 31

Substance: Ig kappa chain V-I region WEA/Similar to Ig kappa chain V-I region HK102 precursor/Ig kappa chain V-I region AU [IPI00003111]
- # of peptides in sample A# (BiP-Sepharose [1]; [6]): 2

Substance: Immunoglobulin J chain, Immunoglobulin J polypeptide, linker protein for immunoglobulin alpha and mu polypeptides [IPI00178926]
- # of peptides in sample A# (BiP-Sepharose [1]; [6]): 5

Substance: Isoform 1 of Plectin-1/Plectin 1 (intermediate filament binding protein 500 kDa, Hemidesmosomal protein 1/HD1) [IPI00014898]
- # of peptides in sample A# (BiP-Sepharose [1]; [3]): 1
- # of peptides in sample A# (BiP-Sepharose [1]; [6]): 2

Substance: Isoform Long of Antigen KI-67/Antigen KI-67 [IPI00004233]
- # of peptides in sample A# (BiP-Sepharose [1]; [4]): 1

Substance: Myosin-reactive immunoglobulin light chain variable region/Ig kappa chain V-III region VH precursor (Fragment) [IPI00024138]
- # of peptides in sample A# (BiP-Sepharose [1]; [6]): 3

Substance: Phosphatase and actin regulator 4 isoform 1/Hypothetical protein DKFZp686L07205 [IPI00217851]
- # of peptides in sample A# (BiP-Sepharose [1]; [6]): 2

Substance: Vitronectin precursor (Serum-spreading factor/S-protein/V75 [Contains: Vitronectin V65 subunit; Vitronectin V10 subunit; Somatomedin B])/Vitronectin [IPI00298971]
- # of peptides in sample A# (BiP-Sepharose [1]; [6]): 4

Substance: clusterin isoform 1 [IPI00291262]
- Specific binding to BiP-Sepharose from normal pooled plasma (BiP-Sepharose [1]; [8]): specifically bound
- Specific binding to BiP-Sepharose from control serum (BiP-Sepharose [1]): specifically bound

Substance: complement factor H isoform I [IPI00029739]
- Specific binding to BiP-Sepharose from normal pooled plasma (BiP-Sepharose [1]; [8]): specifically bound
